# B1: EEHEE_rd3_0130 (parent)
# chain: TKIIVNGKTFTAPTEEEAQKIAEKLAKKAGLTVHKKNGTFELK
# Variants of: B1
# Experiment: folding stability dG (cDNA display proteolysis); higher = more stable
# Conditions: PBS, room temperature
row,Variant,folding stability dG [kJ/mol]
1,TKIIVNGKTFTSPTEEEAQKIAEKLAKKAGLTVHKKNGTFELK [A12S],0.761
2,TKIIVNGKTFTTPTEEEAQKIAEKLAKKAGLTVHKKNGTFELK [A12T],0.347
3,TKIIVNGKTFTIPTEEEAQKIAEKLAKKAGLTVHKKNGTFELK [A12I],5.29
4,TKIIVNGKTFTEPTEEEAQKIAEKLAKKAGLTVHKKNGTFELK [A12E],-1.95
5,TKIIVNGKTFTFPTEEEAQKIAEKLAKKAGLTVHKKNGTFELK [A12F],7.59
6,TKIIVNGKTFTMPTEEEAQKIAEKLAKKAGLTVHKKNGTFELK [A12M],4.28
7,TKIIVNGKTFTHPTEEEAQKIAEKLAKKAGLTVHKKNGTFELK [A12H],1.45
8,TKIIVNGKTFTGPTEEEAQKIAEKLAKKAGLTVHKKNGTFELK [A12G],0.381
9,TKIIVNGKTFTQPTEEEAQKIAEKLAKKAGLTVHKKNGTFELK [A12Q],-0.381
10,TKIIVNGKTFTKPTEEEAQKIAEKLAKKAGLTVHKKNGTFELK [A12K],-0.0586
11,TKIIVNGKTFTRPTEEEAQKIAEKLAKKAGLTVHKKNGTFELK [A12R],1.93
12,TKIIVNGKTFTDPTEEEAQKIAEKLAKKAGLTVHKKNGTFELK [A12D],-0.577
13,TKIIVNGKTFTWPTEEEAQKIAEKLAKKAGLTVHKKNGTFELK [A12W],3.5
14,TKIIVNGKTFTVPTEEEAQKIAEKLAKKAGLTVHKKNGTFELK [A12V],5.62
15,TKIIVNGKTFTYPTEEEAQKIAEKLAKKAGLTVHKKNGTFELK [A12Y],6.81
16,TKIIVNGKTFTNPTEEEAQKIAEKLAKKAGLTVHKKNGTFELK [A12N],-1.7
17,TKIIVNGKTFTLPTEEEAQKIAEKLAKKAGLTVHKKNGTFELK [A12L],5
18,TKIIVNVKTFTAPTEEEAQKIAEKLAKKAGLTVHKKNGTFELK [G7V],-2.48
19,TKIIVNMKTFTAPTEEEAQKIAEKLAKKAGLTVHKKNGTFELK [G7M],-0.297
20,TKIIVNSKTFTAPTEEEAQKIAEKLAKKAGLTVHKKNGTFELK [G7S],-0.105

row,Variant,folding stability dG [kJ/mol]
1,TKIIVNPKTFTAPTEEEAQKIAEKLAKKAGLTVHKKNGTFELK [G7P],-3.13
2,TKIIVNLKTFTAPTEEEAQKIAEKLAKKAGLTVHKKNGTFELK [G7L],-0.778
3,TKIIVNYKTFTAPTEEEAQKIAEKLAKKAGLTVHKKNGTFELK [G7Y],0.665
4,TKIIVNKKTFTAPTEEEAQKIAEKLAKKAGLTVHKKNGTFELK [G7K],0.121
5,TKIIVNTKTFTAPTEEEAQKIAEKLAKKAGLTVHKKNGTFELK [G7T],-0.134
6,TKIIVNIKTFTAPTEEEAQKIAEKLAKKAGLTVHKKNGTFELK [G7I],-0.841
7,TKIIVNWKTFTAPTEEEAQKIAEKLAKKAGLTVHKKNGTFELK [G7W],0.782
8,TKIIVNQKTFTAPTEEEAQKIAEKLAKKAGLTVHKKNGTFELK [G7Q],0.105
9,TKIIVNNKTFTAPTEEEAQKIAEKLAKKAGLTVHKKNGTFELK [G7N],0.87
10,TKIIVNRKTFTAPTEEEAQKIAEKLAKKAGLTVHKKNGTFELK [G7R],0.0879
11,TKIIVNGKTFAAPTEEEAQKIAEKLAKKAGLTVHKKNGTFELK [T11A],0.644
12,TKIIVNGKTFIAPTEEEAQKIAEKLAKKAGLTVHKKNGTFELK [T11I],4.32
13,TKIIVNGKTFHAPTEEEAQKIAEKLAKKAGLTVHKKNGTFELK [T11H],2.92
14,TKIIVNGKTFLAPTEEEAQKIAEKLAKKAGLTVHKKNGTFELK [T11L],3.39
15,TKIIVNGKTFFAPTEEEAQKIAEKLAKKAGLTVHKKNGTFELK [T11F],5.77
16,TKIIVNGKTFEAPTEEEAQKIAEKLAKKAGLTVHKKNGTFELK [T11E],1.09
17,TKIIVNGKTFSAPTEEEAQKIAEKLAKKAGLTVHKKNGTFELK [T11S],2.61
18,TKIIVNGKTFWAPTEEEAQKIAEKLAKKAGLTVHKKNGTFELK [T11W],7.03
19,TKIIVNGKTFVAPTEEEAQKIAEKLAKKAGLTVHKKNGTFELK [T11V],3.19
20,TKIIVNGKTFGAPTEEEAQKIAEKLAKKAGLTVHKKNGTFELK [T11G],-0.0167

row,Variant,folding stability dG [kJ/mol]
1,TKIIVNGKTFMAPTEEEAQKIAEKLAKKAGLTVHKKNGTFELK [T11M],3.96
2,TKIIVNGKTFQAPTEEEAQKIAEKLAKKAGLTVHKKNGTFELK [T11Q],1.33
3,TKIIVNGKTFCAPTEEEAQKIAEKLAKKAGLTVHKKNGTFELK [T11C],6.82
4,TKIIVNGKTFDAPTEEEAQKIAEKLAKKAGLTVHKKNGTFELK [T11D],-1.26
5,TKIIVNGKTFYAPTEEEAQKIAEKLAKKAGLTVHKKNGTFELK [T11Y],5.95
6,TKIIVNGKTFNAPTEEEAQKIAEKLAKKAGLTVHKKNGTFELK [T11N],1.37
7,TKIIVNGKTFKAPTEEEAQKIAEKLAKKAGLTVHKKNGTFELK [T11K],1.04
8,TKIIVNGKTFRAPTEEEAQKIAEKLAKKAGLTVHKKNGTFELK [T11R],2.06
9,TKIIVNGKTVTAPTEEEAQKIAEKLAKKAGLTVHKKNGTFELK [F10V],-2.96
10,TKIIVNGKTITAPTEEEAQKIAEKLAKKAGLTVHKKNGTFELK [F10I],1.9
11,TKIIVNGKTYTAPTEEEAQKIAEKLAKKAGLTVHKKNGTFELK [F10Y],3.56
12,TKIIVNGKTMTAPTEEEAQKIAEKLAKKAGLTVHKKNGTFELK [F10M],0.209
13,TKIIVNGKTLTAPTEEEAQKIAEKLAKKAGLTVHKKNGTFELK [F10L],1.64
14,TKIIVNGKTWTAPTEEEAQKIAEKLAKKAGLTVHKKNGTFELK [F10W],3.43
15,TKIIVNGKTFTAPIEEEAQKIAEKLAKKAGLTVHKKNGTFELK [T14I],-1.48
16,TKIIVNGKTFTAPGEEEAQKIAEKLAKKAGLTVHKKNGTFELK [T14G],1.34
17,TKIIVNGKTFTAPDEEEAQKIAEKLAKKAGLTVHKKNGTFELK [T14D],1.2
18,TKIIVNGKTFTAPCEEEAQKIAEKLAKKAGLTVHKKNGTFELK [T14C],2.85
19,TKIIVNGKTFTAPLEEEAQKIAEKLAKKAGLTVHKKNGTFELK [T14L],-1.72

# From the MegaScale stability set (Tsuboyama et al. 2023)
